Tests used:
RAD51 [1] = target: T1, RAD51 (Homo sapiens, UniProt Q06609 1-339); experiment: cryo-EM structure (3.8 A); Ca2+, ATP (pre-synaptic filament; two Ca2+ per ATP site); EMSA: 25 mM HEPES pH 7.5, 150 mM NaCl, 2 mM DTT, 5 mM CaCl2, 2 mM ATP or 0.5-10 mM ADP, 25 C 15 min; 0.5% agarose in 0.5x TB at 4 C; conditions: protein: recombinant; tags: none stated on the final protein; co-expressed with His6-MBP-BRCA2 BRC4 (pMBP4-RAD51); chain copies: 10; single strand
RAD51 [2] = target: T1, RAD51; experiment: cryo-EM structure; ATP, Ca2+ (post-synaptic filament; second metal ion present); EMSA: 25 mM HEPES pH 7.5, 150 mM NaCl, 2 mM DTT, 5 mM CaCl2, 2 mM ATP or 0.5-10 mM ADP, 25 C 15 min; 0.5% agarose in 0.5x TB at 4 C; conditions: protein: recombinant; tags: none stated on the final protein; co-expressed with His6-MBP-BRCA2 BRC4 (pMBP4-RAD51); chain copies: 16; blunt ends, internal 10-nt mismatched bubble

T1 sequence (Q06609 whole entry): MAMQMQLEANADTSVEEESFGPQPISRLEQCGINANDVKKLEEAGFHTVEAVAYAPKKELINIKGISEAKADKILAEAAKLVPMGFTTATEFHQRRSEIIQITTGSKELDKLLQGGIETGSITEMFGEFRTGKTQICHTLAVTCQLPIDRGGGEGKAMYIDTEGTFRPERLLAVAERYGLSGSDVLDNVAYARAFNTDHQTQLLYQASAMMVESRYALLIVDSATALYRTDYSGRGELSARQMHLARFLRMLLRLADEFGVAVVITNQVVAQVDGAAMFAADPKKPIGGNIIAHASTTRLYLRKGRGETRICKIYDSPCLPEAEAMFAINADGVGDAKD

| Binder | binding result (RAD51 [1]) | binding result (RAD51 [2]) |
| --- | --- | --- |
| x60 ssDNA 60mer (ssDNA) DNA: ATGGTGTGTGTAGGTTAATGTGAGGAGGAGAGGTGAAGAAGGAGGAGAGAAGAAGGAGGC | binds |  |
| R51-14:R51-15 (post-synaptic filament DNA) (dsDNA) DNA 1: TGGAGGTGCATCGAGCTCGCGACAAACCTTCTATGTTGAGCGTCAGTCGG DNA 2: CCGACTGACGCTCAACATAGGTACCACACGGCGAGCTCGATGCACCTCCA |  | binds |
